Test results published in paper PMC4109839, “Fibrin binds to collagen and provides a bridge for αVβ3 integrin-dependent contraction of collagen gels” (Biochemical Journal, 2014).

B1: biotinylated human plasma fibrinogen (natural protein)
chain 1: ADSGEGDFLAEGGGVRGPRVVERHQSACKDSDWPFCSDEDWNYKCPSGCRMKGLIDEVNQDFTNRINKLKNSLFEYQKNNKDSHSLTTNIMEILRGDFSSANNRDNTYNRVSEDLRSRIEVLKRKVIEKVQHIQLLQKNVRAQLVDMKRLEVDIDIKIRSCRGSCSRALAREVDLKDYEDQQKQLEQVIAKDLLPSRDRQHLPLIKMKPVPDLVPGNFKSQLQKVPPEWKALTDMPQMRMELERPGGNEITRGGSTSYGTGSETESPRNPSSAGSWNSGSSGPGSTGNRNPGSSGTGGTATWKPGSSGPGSTGSWNSGSSGTGSTGNQNPGSPRPGSTGTWNPGSSERGSAGHWTSESSVSGSTGQWHSESGSFRPDSPGSGNARPNNPDWGTFEEVSGNVSPGTRREYHTEKLVTSKGDKELRTGKEKVTSGSTTTTRRSCSKTVTKTVIGPDGHKEVTKEVVTSEDGSDCPEAMDLGTLSGIGTLDGFRHRHPDEAAFFDTASTGKTFPGFFSPMLGEFVSETESRGSESGIFTNTKESSSHHPGIAEFPSRGKSSSYSKQFTSSTSYNRGDSTFESKSYKMADEAGSEADHEGTHSTKRGHAKSRPV
chain 2: QGVNDNEEGFFSARGHRPLDKKREEAPSLRPAPPPISGGGYRARPAKAAATQKKVERKAPDAGGCLHADPDLGVLCPTGCQLQEALLQQERPIRNSVDELNNNVEAVSQTSSSSFQYMYLLKDLWQKRQKQVKDNENVVNEYSSELEKHQLYIDETVNSNIPTNLRVLRSILENLRSKIQKLESDVSAQMEYCRTPCTVSCNIPVVSGKECEEIIRKGGETSEMYLIQPDSSVKPYRVYCDMNTENGGWTVIQNRQDGSVDFGRKWDPYKQGFGNVATNTDGKNYCGLPGEYWLGNDKISQLTRMGPTELLIEMEDWKGDKVKAHYGGFTVQNEANKYQISVNKYRGTAGNALMDGASQLMGENRTMTIHNGMFFSTYDRDNDGWLTSDPRKQCSKEDGGGWWYNRCHAANPNGRYYWGGQYTWDMAKHGTDDGVVWMNWKGSWYSMRKMSMKIRPFFPQQ
chain 3: YVATRDNCCILDERFGSYCPTTCGIADFLSTYQTKVDKDLQSLEDILHQVENKTSEVKQLIKAIQLTYNPDESSKPNMIDAATLKSRKMLEEIMKYEASILTHDSSIRYLQEIYNSNNQKIVNLKEKVAQLEAQCQEPCKDTVQIHDITGKDCQDIANKGAKQSGLYFIKPLKANQQFLVYCEIDGSGNGWTVFQKRLDGSVDFKKNWIQYKEGFGHLSPTGTTEFWLGNEKIHLISTQSAIPYALRVELEDWNGRTSTADYAMFKVGPEADKYRLTYAYFAGGDAGDAFDGFDFGDDPSDKFFTSHNGMQFSTWDNDNDKFEGNCAEQDGSGWWMNKCHAGHLNGVYYQGGTYSKASTPNGYDNGIIWATWKTRWYSMKKTTMKIIPFNRLTIGEGQQHHLGGAKQAGDV
modifications: biotin (biotin N-hydroxysuccinimide ester; which chains and residues not stated) | biotin (biotin N-hydroxysuccinimide ester; which chains and residues not stated) | biotin (biotin N-hydroxysuccinimide ester; which chains and residues not stated)
B2: human plasma fibrinogen (natural protein)
chain 1: ADSGEGDFLAEGGGVRGPRVVERHQSACKDSDWPFCSDEDWNYKCPSGCRMKGLIDEVNQDFTNRINKLKNSLFEYQKNNKDSHSLTTNIMEILRGDFSSANNRDNTYNRVSEDLRSRIEVLKRKVIEKVQHIQLLQKNVRAQLVDMKRLEVDIDIKIRSCRGSCSRALAREVDLKDYEDQQKQLEQVIAKDLLPSRDRQHLPLIKMKPVPDLVPGNFKSQLQKVPPEWKALTDMPQMRMELERPGGNEITRGGSTSYGTGSETESPRNPSSAGSWNSGSSGPGSTGNRNPGSSGTGGTATWKPGSSGPGSTGSWNSGSSGTGSTGNQNPGSPRPGSTGTWNPGSSERGSAGHWTSESSVSGSTGQWHSESGSFRPDSPGSGNARPNNPDWGTFEEVSGNVSPGTRREYHTEKLVTSKGDKELRTGKEKVTSGSTTTTRRSCSKTVTKTVIGPDGHKEVTKEVVTSEDGSDCPEAMDLGTLSGIGTLDGFRHRHPDEAAFFDTASTGKTFPGFFSPMLGEFVSETESRGSESGIFTNTKESSSHHPGIAEFPSRGKSSSYSKQFTSSTSYNRGDSTFESKSYKMADEAGSEADHEGTHSTKRGHAKSRPVRGIHTSPLGKPSLSP
chain 2: QGVNDNEEGFFSARGHRPLDKKREEAPSLRPAPPPISGGGYRARPAKAAATQKKVERKAPDAGGCLHADPDLGVLCPTGCQLQEALLQQERPIRNSVDELNNNVEAVSQTSSSSFQYMYLLKDLWQKRQKQVKDNENVVNEYSSELEKHQLYIDETVNSNIPTNLRVLRSILENLRSKIQKLESDVSAQMEYCRTPCTVSCNIPVVSGKECEEIIRKGGETSEMYLIQPDSSVKPYRVYCDMNTENGGWTVIQNRQDGSVDFGRKWDPYKQGFGNVATNTDGKNYCGLPGEYWLGNDKISQLTRMGPTELLIEMEDWKGDKVKAHYGGFTVQNEANKYQISVNKYRGTAGNALMDGASQLMGENRTMTIHNGMFFSTYDRDNDGWLTSDPRKQCSKEDGGGWWYNRCHAANPNGRYYWGGQYTWDMAKHGTDDGVVWMNWKGSWYSMRKMSMKIRPFFPQQ
chain 3: YVATRDNCCILDERFGSYCPTTCGIADFLSTYQTKVDKDLQSLEDILHQVENKTSEVKQLIKAIQLTYNPDESSKPNMIDAATLKSRKMLEEIMKYEASILTHDSSIRYLQEIYNSNNQKIVNLKEKVAQLEAQCQEPCKDTVQIHDITGKDCQDIANKGAKQSGLYFIKPLKANQQFLVYCEIDGSGNGWTVFQKRLDGSVDFKKNWIQYKEGFGHLSPTGTTEFWLGNEKIHLISTQSAIPYALRVELEDWNGRTSTADYAMFKVGPEADKYRLTYAYFAGGDAGDAFDGFDFGDDPSDKFFTSHNGMQFSTWDNDNDKFEGNCAEQDGSGWWMNKCHAGHLNGVYYQGGTYSKASTPNGYDNGIIWATWKTRWYSMKKTTMKIIPFNRLTIGEGQQHHLGGAKQAGDV
notes: fibrinogen Aα-chain, human, from plasma; fibrinogen Bβ-chain, human, from plasma; fibrinogen γ-chain, human, from plasma; In the gel contraction assays it was converted into fibrin by thrombin; also called unlabelled fibrinogen; non-biotinylated fibrinogen; source: bought: Sigma-Aldrich; copies: 2 + 2 + 2

Legend:
[1] = molecular target: T1, PureCol native bovine dermal collagen type I (bovine, UniProt P02453 162-1217; P02465 80-1117); test: ELISA; solid-phase assay: plates coated with 10 μg/ml native or denatured Col I, blocked with 2% BSA; biotinylated fibrinogen in 0.5% BSA in Ca2+- and Mg2+-free PBS pH 7.4, 2 h at 37°C; avidin-alkaline phosphatase; settings: both partners purified
T1 construct: collagen α1(I) chain, bovine (Bos taurus), from dermis; collagen α2(I) chain, bovine; Native triple helix; Prolines are in part hydroxylated in the tissue protein; also called Col I; native Col I; source: bought: Advanced Biomatrix (PureCol, 3 mg/ml)
T1 sequence (P02453 162-1217, chain 1 of 2): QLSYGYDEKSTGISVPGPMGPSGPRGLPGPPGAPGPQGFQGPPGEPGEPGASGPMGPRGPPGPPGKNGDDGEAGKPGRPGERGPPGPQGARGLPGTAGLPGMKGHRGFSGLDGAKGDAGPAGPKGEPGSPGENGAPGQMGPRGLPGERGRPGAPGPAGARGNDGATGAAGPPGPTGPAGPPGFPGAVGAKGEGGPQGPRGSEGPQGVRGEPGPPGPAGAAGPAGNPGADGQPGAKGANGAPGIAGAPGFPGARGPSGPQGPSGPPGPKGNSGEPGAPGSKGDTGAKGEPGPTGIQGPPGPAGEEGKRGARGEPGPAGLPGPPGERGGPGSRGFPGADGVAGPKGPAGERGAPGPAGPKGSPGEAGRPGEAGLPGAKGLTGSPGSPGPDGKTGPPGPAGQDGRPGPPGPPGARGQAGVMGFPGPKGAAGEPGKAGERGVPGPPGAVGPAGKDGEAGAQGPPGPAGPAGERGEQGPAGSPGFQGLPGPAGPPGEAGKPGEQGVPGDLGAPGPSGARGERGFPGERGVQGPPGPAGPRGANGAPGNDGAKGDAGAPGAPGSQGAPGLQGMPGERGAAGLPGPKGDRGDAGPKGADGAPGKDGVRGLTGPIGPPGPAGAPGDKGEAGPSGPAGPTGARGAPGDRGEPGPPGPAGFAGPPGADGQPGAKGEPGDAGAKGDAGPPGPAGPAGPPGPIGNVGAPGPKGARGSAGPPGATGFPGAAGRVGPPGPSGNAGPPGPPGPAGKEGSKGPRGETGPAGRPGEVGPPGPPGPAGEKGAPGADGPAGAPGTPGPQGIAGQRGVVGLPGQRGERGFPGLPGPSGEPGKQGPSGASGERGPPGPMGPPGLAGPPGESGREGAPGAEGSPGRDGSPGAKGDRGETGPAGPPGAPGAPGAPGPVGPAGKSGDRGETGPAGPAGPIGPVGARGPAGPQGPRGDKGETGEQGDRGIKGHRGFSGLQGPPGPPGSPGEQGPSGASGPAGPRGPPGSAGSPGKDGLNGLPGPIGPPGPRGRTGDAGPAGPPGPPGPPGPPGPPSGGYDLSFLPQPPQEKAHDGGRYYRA
T1 sequence (P02465 80-1117, chain 2 of 2): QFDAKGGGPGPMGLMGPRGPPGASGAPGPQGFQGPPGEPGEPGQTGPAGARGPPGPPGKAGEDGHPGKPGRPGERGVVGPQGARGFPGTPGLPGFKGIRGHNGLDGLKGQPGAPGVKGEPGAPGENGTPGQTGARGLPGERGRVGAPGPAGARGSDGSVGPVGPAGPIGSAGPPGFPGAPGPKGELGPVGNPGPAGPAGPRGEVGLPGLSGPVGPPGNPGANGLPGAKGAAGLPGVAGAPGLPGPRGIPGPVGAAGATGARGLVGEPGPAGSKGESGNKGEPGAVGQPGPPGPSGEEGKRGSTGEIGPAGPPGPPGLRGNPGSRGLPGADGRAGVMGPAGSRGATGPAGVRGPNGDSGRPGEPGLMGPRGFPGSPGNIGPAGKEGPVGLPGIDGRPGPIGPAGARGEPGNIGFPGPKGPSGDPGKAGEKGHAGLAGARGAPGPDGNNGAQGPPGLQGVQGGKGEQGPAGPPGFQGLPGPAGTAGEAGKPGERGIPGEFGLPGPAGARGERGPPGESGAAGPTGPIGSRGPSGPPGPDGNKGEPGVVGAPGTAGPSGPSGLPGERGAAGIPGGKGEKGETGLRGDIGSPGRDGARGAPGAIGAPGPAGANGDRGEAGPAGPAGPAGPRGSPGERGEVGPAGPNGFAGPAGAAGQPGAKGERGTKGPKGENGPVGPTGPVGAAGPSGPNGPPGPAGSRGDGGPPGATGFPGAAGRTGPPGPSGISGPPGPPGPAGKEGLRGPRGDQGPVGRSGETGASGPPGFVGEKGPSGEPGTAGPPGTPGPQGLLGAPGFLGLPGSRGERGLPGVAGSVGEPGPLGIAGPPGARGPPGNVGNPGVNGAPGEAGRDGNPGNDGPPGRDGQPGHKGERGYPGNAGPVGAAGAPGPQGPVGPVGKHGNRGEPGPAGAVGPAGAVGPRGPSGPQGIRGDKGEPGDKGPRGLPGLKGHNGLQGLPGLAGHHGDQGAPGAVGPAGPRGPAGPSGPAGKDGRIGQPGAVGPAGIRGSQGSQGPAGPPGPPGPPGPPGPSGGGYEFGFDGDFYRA

[2] = molecular target: T1, PureCol native bovine dermal collagen …; test: SPR; Col I (PureCol bovine dermal and mouse-tail tendon) coupled to a BiaCore C1 chip; freshly dissolved, filtered fibrinogen in PBS passed over the chip, then wash-out; settings: both partners purified

Row | Binder | EC50 [1] [nM] | EC50 [2] [nM]
1 | B1 | ~70 | 
2 | B2 |  | ~10
